In article PMC6277039 (Biochemical and biophysical research communications, 2018):
Several values for one entry are separate records, joined by “and”; a condition that tells them apart may be missing. Equal values may be shown once.

Key:
Experiment in all cases: ITC
[1] = target: HSPA1A S16P (human, UniProt P0DMV8 1-641, S16P)
[2] = target: HSPA1A K71A (human, UniProt P0DMV8 1-641, K71A)
[3] = target: HSPA1A I74T (human, UniProt P0DMV8 1-641, I74T)
[4] = target: HSPA1A R36C (human, UniProt P0DMV8 1-641, R36C)
[5] = target: HSPA1A wild-type (WT) (human, UniProt P0DMV8 1-641)
[6] = target: HSPA1A F592S (human, UniProt P0DMV8 1-641, F592S)
[7] = target: HSPA1A S16Y (human, UniProt P0DMV8 1-641, S16Y)
[8] = target: HSPA1A I480N (human, UniProt P0DMV8 1-641, I480N)
HSPA1A I480N, sequence (P0DMV8 whole entry I480N): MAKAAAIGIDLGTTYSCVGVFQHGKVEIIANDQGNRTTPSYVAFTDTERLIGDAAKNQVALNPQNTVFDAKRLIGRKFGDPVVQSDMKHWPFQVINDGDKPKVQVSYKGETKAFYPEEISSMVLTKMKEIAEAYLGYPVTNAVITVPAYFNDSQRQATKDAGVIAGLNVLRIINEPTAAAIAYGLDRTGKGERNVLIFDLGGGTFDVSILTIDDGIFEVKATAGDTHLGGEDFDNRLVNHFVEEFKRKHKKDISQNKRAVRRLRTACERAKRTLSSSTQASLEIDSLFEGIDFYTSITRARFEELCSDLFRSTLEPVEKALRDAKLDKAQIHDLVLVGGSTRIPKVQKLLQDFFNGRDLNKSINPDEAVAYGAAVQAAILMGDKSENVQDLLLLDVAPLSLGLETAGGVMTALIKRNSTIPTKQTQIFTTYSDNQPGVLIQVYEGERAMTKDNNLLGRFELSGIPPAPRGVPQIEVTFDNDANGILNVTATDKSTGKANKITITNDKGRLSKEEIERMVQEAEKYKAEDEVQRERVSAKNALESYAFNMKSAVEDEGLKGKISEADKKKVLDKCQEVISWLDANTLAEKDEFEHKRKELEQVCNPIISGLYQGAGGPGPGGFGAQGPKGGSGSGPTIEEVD

HSPA1A S16Y, sequence (P0DMV8 whole entry S16Y): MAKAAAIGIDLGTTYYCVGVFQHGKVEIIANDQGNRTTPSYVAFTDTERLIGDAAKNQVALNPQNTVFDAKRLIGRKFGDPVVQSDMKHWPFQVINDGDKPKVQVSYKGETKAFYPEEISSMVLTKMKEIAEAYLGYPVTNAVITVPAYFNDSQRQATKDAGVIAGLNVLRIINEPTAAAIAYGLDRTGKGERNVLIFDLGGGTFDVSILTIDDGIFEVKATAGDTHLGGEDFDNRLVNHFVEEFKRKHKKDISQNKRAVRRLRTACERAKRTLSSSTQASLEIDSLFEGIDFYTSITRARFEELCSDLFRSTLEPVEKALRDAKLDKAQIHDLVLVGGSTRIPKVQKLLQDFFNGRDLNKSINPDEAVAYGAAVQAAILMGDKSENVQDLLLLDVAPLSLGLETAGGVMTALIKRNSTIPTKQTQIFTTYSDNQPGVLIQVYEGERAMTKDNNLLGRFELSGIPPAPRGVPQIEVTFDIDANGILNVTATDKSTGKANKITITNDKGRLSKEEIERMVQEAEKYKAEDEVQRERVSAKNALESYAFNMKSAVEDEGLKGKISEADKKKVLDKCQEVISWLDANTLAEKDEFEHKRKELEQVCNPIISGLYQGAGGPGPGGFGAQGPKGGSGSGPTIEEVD
HSPA1A S16P, sequence (P0DMV8 whole entry S16P): as the sequence (P0DMV8 whole entry S16Y) above, with Y16P counted along it
HSPA1A I74T, sequence (P0DMV8 whole entry I74T): as the sequence (P0DMV8 whole entry S16Y) above, with Y16S, I74T counted along it
HSPA1A F592S, sequence (P0DMV8 whole entry F592S): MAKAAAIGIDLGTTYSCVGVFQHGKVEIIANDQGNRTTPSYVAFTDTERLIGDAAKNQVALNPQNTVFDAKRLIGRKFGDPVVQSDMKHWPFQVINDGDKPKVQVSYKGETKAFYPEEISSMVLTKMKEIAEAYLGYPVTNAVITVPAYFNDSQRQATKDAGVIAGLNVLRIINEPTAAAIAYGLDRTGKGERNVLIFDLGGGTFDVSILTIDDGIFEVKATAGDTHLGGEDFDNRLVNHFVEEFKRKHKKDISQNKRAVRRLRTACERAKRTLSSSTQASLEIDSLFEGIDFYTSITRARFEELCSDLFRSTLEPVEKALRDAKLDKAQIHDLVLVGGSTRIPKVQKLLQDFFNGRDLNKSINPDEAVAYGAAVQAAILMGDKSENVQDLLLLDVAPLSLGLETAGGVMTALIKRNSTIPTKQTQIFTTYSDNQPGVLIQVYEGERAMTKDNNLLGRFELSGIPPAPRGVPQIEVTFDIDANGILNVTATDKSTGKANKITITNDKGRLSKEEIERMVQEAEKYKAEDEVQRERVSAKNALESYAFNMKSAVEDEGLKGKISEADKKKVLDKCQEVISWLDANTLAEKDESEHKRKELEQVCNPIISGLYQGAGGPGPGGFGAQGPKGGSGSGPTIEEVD
HSPA1A K71A, sequence (P0DMV8 whole entry K71A): as the sequence (P0DMV8 whole entry S16Y) above, with Y16S, K71A counted along it
HSPA1A R36C, sequence (P0DMV8 whole entry R36C): as the sequence (P0DMV8 whole entry S16Y) above, with Y16S, R36C counted along it
HSPA1A wild-type (WT), sequence (P0DMV8 whole entry): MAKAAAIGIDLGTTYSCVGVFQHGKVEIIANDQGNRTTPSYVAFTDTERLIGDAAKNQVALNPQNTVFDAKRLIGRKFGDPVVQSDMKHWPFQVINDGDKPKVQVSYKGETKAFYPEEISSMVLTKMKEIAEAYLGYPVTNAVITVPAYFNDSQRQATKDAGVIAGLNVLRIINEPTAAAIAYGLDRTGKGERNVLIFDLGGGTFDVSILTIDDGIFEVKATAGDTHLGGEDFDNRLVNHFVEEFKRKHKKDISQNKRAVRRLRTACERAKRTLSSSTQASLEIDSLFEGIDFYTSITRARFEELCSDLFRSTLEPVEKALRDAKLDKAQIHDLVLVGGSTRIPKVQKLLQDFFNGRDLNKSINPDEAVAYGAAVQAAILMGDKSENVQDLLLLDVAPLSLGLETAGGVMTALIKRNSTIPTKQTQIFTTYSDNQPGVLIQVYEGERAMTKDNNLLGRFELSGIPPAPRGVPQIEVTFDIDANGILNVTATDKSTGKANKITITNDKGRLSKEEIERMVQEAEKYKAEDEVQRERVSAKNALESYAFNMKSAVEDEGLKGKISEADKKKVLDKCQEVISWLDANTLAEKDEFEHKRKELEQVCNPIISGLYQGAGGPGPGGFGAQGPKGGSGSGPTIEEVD

Kd [1]: 738 nM and 679 nM and 599 nM | dH [1]: -2.98 kcal/mol and -3.21 kcal/mol and -3.22 kcal/mol | stoichiometry N [1]: 0.991 and 1 and 1.03 | Kd [2]: 528 nM and 615 nM and 635 nM | dH [2]: -2.77 kcal/mol and -3.32 kcal/mol and -2.86 kcal/mol | stoichiometry N [2]: 0.982 and 1 and 0.989 | Kd [3]: 999 nM and 995 nM and 935 nM | dH [3]: -4.52 kcal/mol and -4.7 kcal/mol and -4.85 kcal/mol | stoichiometry N [3]: 0.998 and 0.985 and 1.01 | Kd [4]: 576 nM and 472 nM and 509 nM | dH [4]: -3.75 kcal/mol and -3.81 kcal/mol and -3.88 kcal/mol | stoichiometry N [4]: 1.03 and 1 and 0.984 | Kd [5]: 335 nM and 529 nM and 364 nM | dH [5]: -6.18 kcal/mol and -4.72 kcal/mol and -4.79 kcal/mol | stoichiometry N [5]: 0.993 and 1 and 1.02 | Kd [6]: 559 nM and 500 nM and 374 nM | dH [6]: -3.84 kcal/mol and -4.67 kcal/mol and -3.66 kcal/mol | stoichiometry N [6]: 1.07 and 1.04 and 1.06 | Kd [7]: 335 nM and 331 nM and 315 nM | dH [7]: -10.2 kcal/mol and -9.96 kcal/mol and -9.74 kcal/mol | stoichiometry N [7]: 1.04 and 1.02 and 1.01 | Kd [8]: 710 nM and 661 nM and 697 nM | dH [8]: -4.43 kcal/mol and -5.06 kcal/mol and -4.72 kcal/mol | stoichiometry N [8]: 1.02 (2×) and 1.01
B1: protein substrate (peptide NIVAKKK) (peptide)
peptide: NIVAKKK
